# Reference: patent US20240279307A1 (published 2024)
# Substitutions are numbered along the chain they refer to.
# T1: HMHA1, wild type (HA-1R; HA-1H-negative, rs1801284 G/G) peptide on HLA-A*02:01 (human)
# T1 peptide: VLRDDLLEA
# T2: HMHA1 (Rho GTPase-activating protein 45), minor histocompatibility antigen HA-1H, R139H polymorphism peptide … (human)
# T2 peptide: VLHDDLLEA
# B1: TCR2 (TCR, V domains shown)
# Valpha: KQEVTQIPAALSVPEGENLVLNCSFTDSAIYNLQWFRQDPGKGLTSLLLIQSSQREQTSGRLNASLDKSSGRSTLYIAASQPGDSATYLCAVIGLGGTYKYIFGTGTRLKVLA
# Vbeta: DTGVSQDPRHKITKRGQNVTFRCDPISEHNRLYWYRQTLGQGPEFLTYFQNEAQLEKSRLLSDRFSAERPKGSFSTLEIQRTEQGDSAMYLCASSLVKGEKLFFGSGTQLSVL
# B2: TCR16 (TCR, V domains shown)
# Valpha: KQEVTQIPAALSVPEGENLVLNCSFTDSAIYNLQWFRQDPGKGLTSLLLIQSSQREQTSGRLNASLDKSSGRSTLYIAASQPGDSATYLCAVHLLNDYKLSFGAGTTVTVRA
# Vbeta: B1 Vbeta with K98V, E100N, K101E, L102Q, S106P, Q109R, S111T
# B3: TCR5 (TCR, V domains shown)
# Valpha: SQQGEEDPQALSIQEGENATMNCSYKTSINNLQWYRQNSGRGLVHLILIRSNEREKHSGRLRVTLDTSKKSSSLLITASRAADTASYFCATNSGNTPLVFGKGTRLSVIA
# Vbeta: DTGVSQDPRHKITKRGQNVTFRCDPISEHNRLYWYRQTLGQGPEFLTYFQNEAQLEKSRLLSDRFSAERPKGSFSTLEIQRTEQGDSAMYLCASSLTTLDEQYVGPGTRLTVT
# B4: TCR10 (TCR, V domains shown)
# Valpha: KNQVEQSPQSLIILEGKNCTLQCNYTVSPFSNLRWYKQDTGRGPVSLTIMTFSENTKSNGRYTATLDADTKQSSLHITASQLSDSASYICVVDSGGGADGLTFGKGTHLIIQP
# Vbeta: B3 Vbeta with L96M, T97L, L99N, D100Y, V104F
# B5: TCR1 (TCR, V domains shown)
# Valpha: SQQGEEDPQALSIQEGENATMNCSYKTSINNLQWYRQNSGRGLVHLILIRSNEREKHSGRLRVTLDTSKKSSSLLITASRAADTASYFCATKRDSGAGSYQLTFGKGTKLSVIP
# Vbeta: DTGVSQDPRHKITKRGQNVTFRCDPISEHNRLYWYRQTLGQGPEFLTYFQNEAQLEKSRLLSDRFSAERPKGSFSTLEIQRTEQGDSAMYLCASSSTGGHNEQFFGPGTRLTVL
# Molecular target: T1, HMHA1, wild type (HA-1R; …)
# Assay: killing
row,Binder,binding result
1,B1,no recognition
2,B2,no recognition
3,B3,no recognition
4,B4,no recognition
5,B5,no recognition

# Molecular target: T2, HMHA1 (Rho GTPase-activating protein …)
# Assay: multimer staining
row,binding result,Binder
1,recognises,B1
2,recognises,B2
3,recognises,B3
4,recognises,B4
5,recognises,B5
